# Literature values in PMC3839795.
# Target: Asp3 (position 2, ----SDNKTYG)
# Experiment: NMR
# Conditions: free peptide in solution (details not stated)
protein,measurement,value
SDNKTYG [Heptapeptide derived from turkey ovomucoid third domain (OMTKY3) (Meleagris gallopavo)],pKa,about 3.6
